From patent US12359192B2, “Methods and compositions for display of macrocyclic peptides” (University of Rochester, priority 2013, dated 2025)
Numbered stars: 1 amine (or outer) side, 2 acyl side, 3 side chain; on linkers, the order of the positions; unused ones are H or OH. Bridge positions count the residues as written; N and C are the ends. Peptide text beside a SMILES is read from it. * marks the point of attachment. CH2CH2 = C(C[*:2])[*:1]; Propargyl = C#CC*

Key:
streptavidin [1] = target: T1, streptavidin (Streptomyces avidinii, UniProt P22629); assay: in-solution inhibition (competitive binding) assay for streptavidin binding affinity; details: versus cyclo[S(OpgY)[…]]
T1 construct: purchased Sigma-Aldrich
T1 sequence (P22629 25-183, species assumed): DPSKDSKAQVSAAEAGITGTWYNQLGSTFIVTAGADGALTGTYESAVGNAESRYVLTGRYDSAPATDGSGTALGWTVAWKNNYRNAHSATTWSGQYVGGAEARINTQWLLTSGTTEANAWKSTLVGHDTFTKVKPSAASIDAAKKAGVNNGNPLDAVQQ
Experimental: Then, a fixed amount of streptavidin-horseradish peroxidase conjugate is added to the plate in the presence of varying amount of the bicyclic or cyclic peptide.

Keap1 Kelch domain (KKD) = target: T2, Keap1 Kelch domain (KKD) (Homo sapiens, UniProt Q14145); assay: direct binding assay with plate-immobilized Keap1 Kelch domain (KKD) and HRP-conjugated anti-FLAG antibody; details: linear version, O2beY substituted with OpgY
T2 construct: poly-His tag with TEV protease cleavable linker (N)
T2 sequence (Q14145 321-609 limits assumed): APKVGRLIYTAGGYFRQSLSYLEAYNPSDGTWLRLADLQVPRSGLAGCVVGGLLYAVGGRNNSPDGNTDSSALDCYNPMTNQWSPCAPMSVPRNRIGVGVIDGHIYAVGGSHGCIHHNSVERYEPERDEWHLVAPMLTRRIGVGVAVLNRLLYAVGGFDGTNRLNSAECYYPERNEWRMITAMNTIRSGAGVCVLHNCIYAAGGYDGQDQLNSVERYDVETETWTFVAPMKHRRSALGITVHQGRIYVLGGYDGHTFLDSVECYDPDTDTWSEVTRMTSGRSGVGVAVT
Excerpt: FIG. 46A-FIG. 46C depict the selection of macrocyclic peptide inhibitors of the Keap1/Nrf2 interaction using methods disclosed herein. […] KD values correspond to the FLAG-tagged CBD-fused peptide macrocycles. FIG. 46B depicts binding curves for selected macrocyclic peptides as determined using a direct binding assay with plate-immobilized KKD and HRP-conjugated anti-FLAG antibody for detection of the bound peptide.
FIG. 47A-FIG. 47B depicts the selection of Keap1 binding macrocyclic peptides from a naïve macrocyclic peptide phage display library. […] FIG. 47B depicts the binding curves binding curves for selected macrocyclic peptides as determined using a direct binding assay with plate-immobilized KKD and HRP-conjugated anti-FLAG antibody for detection of the bound peptide.
The macrocyclic peptide phage display system of FIG. 43 was further applied to discover macrocyclic peptides capable of targeting a biomedically relevant protein-protein interaction such as the interaction between the Kelch-like ECH-associated protein 1 (Keap1) and transcriptional regulator Nrf2. […] The purified FLAG-tagged cyclic peptides were then tested for their ability to bind the Keap1 Kelch domain (KKD) using an in vitro assay, in which peptide binding to plate-immobilized KKD is detected using a HRP-conjugated anti-FLAG antibody (FIG. 46B). […]

Keap1 Kelch Domain (KDD) = target: T3, Keap1 Kelch Domain (KDD) (Homo sapiens, UniProt Q14145); assay: KD (nM)
T3 construct: poly-His tag with TEV protease cleavable linker (N)
Excerpt: Table printed on a drawing sheet, FIG. 47A
Head of the field: KD (nM)
The patent's description of the figure: FIG. 47A-FIG. 47B depicts the selection of Keap1 binding macrocyclic peptides from a naïve macrocyclic peptide phage display library. FIG. 47A depicts the naïve library of i/i+6-linked macrocyclic peptides (X=NNK; Y*=O2beY) and the sequences and binding affinity for selected macrocyclic Keap1-binding peptides isolated after panning the macrocyclic peptide display library against immobilized Keap1 Kelch Domain (KDD). FIG. 47B depicts the binding curves binding curves for selected macrocyclic peptides as determined using a direct binding assay with plate-immobilized KKD and HRP-conjugated anti-FLAG antibody for detection of the bound peptide.
First copying reader's note: Residue columns have no printed head; a drawn thioether linker joins Y* (first residue) and C (last residue), and the KD cells hold value ± error for binding to the Keap1 Kelch Domain (KKD).
Where the first naming reader finds the target: description_of_the_figure: isolated after panning the macrocyclic peptide display library against immobilized Keap1 Kelch Domain (KDD)

streptavidin [2] = target: T1, streptavidin; assay: direct binding assay with plate-immobilized streptavidin and HRP-conjugated anti-FLAG antibody; details: CBD alone (tag control)
Excerpt: FIG. 45A-FIG. 45C depict the affinity selection of streptavidin binding peptide macrocycles using methods disclosed herein. […] KD values correspond to the corresponding FLAG-macrocycle-CBD constructs in purified form. FIG. 45B depicts binding curves for selected peptide macrocycle hits as determined using a direct binding assay with plate-immobilized streptavidin and HRP-conjugated anti-FLAG antibody for detection of the bound peptide. […] FIG. 45D depicts phage enrichment over the four rounds of affinity selection and amplification as determined via the phage titer assay.
Studies were performed to assess the functionality of the phage display-based strategy for functional selection of thioether-linked macrocyclic peptides (FIG. 43) that can bind to a target protein. […] To this end, three peptide sequences from the ‘-GD’ family and two from the ‘-FD’ family, respectively, were subcloned into a pET22 vector for expression of the corresponding macrocyclic peptides fused to a N-terminal FLAG tag and a C-terminal chitin binding domain (CBD) and poly-histidine tag to facilitate purification and quantification. […]
Binding Assays. […] Equilibrium dissociation constants (KD) were determined by fitting the dose-response curves to a 1:1 binding isotherm equation via nonlinear regression using SigmaPlot. Mean values and standard deviations were calculated from experiments performed in triplicate.

With `CC(C)[C@@H]1NC(=O)[C@H](CC(N)=O)NC(=O)[C@H]([C@@H](C)O)NC(=O)[C@@H]2Cc3ccc(cc3)OCCSC[C@H](NC(=O)[C@H](Cc3ccccc3)NC(=O)[C@H](CCC(N)=O)NC(=O)[C@@H]3CCCN3C(=O)[C@H](Cc3c[nH]cn3)NC1=O)C(=O)N[C@@H](CC(N)=O)C(=O)N[C@@H](C)C(=O)N[C@@H](CS)C(=O)N2` [cStrep3(C)—Z8C(p-2beF)] (cyclo(ACYTNVHPQFCN); linker 3-11 via CH2CH2) as the molecule, how does the “increase in streptavidin binding affinity as compared to the monocyclic counterpart” value (streptavidin [1]) read?
Its value is > 2 fold.

For `C#CCOc1ccc(C[C@H](N)C(=O)N[C@@H](CC(=O)O)C(=O)N[C@@H](CO)C(=O)N[C@@H](CCC(=O)O)C(=O)N[C@H](C(=O)NCC(=O)N[C@@H](CCC(=O)O)C(=O)N[C@@H](CS)C(=O)O)[C@@H](C)O)cc1` [linear version of KKD-m1] (H-Y(Propargyl)DSETGEC-OH; N-terminus and C-terminus assumed), which “lower affinity for Keap1 relative to KKD-m1” value (Keap1 Kelch domain (KKD)) is on record?
Its value is “five-fold lower affinity”.

“Y* D A E T G E C (YDAETGEC; not fully specified; modified tyrosine Y*; KKD(6X)-m2) [SEQ ID NO: 251 | KKD(6X)-m2]” was tested. Which Kd (Keap1 Kelch Domain (KDD)) did it give?
Its Kd is 40 ± 13 nM.

For “Y* D I E T G E C (YDIETGEC; not fully specified; modified tyrosine Y*; KKD(6X)-m1) [SEQ ID NO: 250 | KKD(6X)-m1]”, which Kd (Keap1 Kelch Domain (KDD)) is on record?
Its Kd is 43 ± 14 nM.

B1: CBD: chitin binding domain tag alone (protein)
chain: MKIEEGKLTNPGVSAWQVNTAYTAGQLVTYNGKTYKCLQPHTSLAGWEPSNVPALWQLQNNGNNGLELRHG
How did the binding to streptavidin (streptavidin [2]) turn out when B1 was run?
Its binding to streptavidin is “no detectable binding”.
